This note sets out measurements from US20230265516A1 (UNIVERSITY OF ARIZONA ARIZONA BOARD OF REGENTS, published 2023).

This test has as its target T1, nicotinamide phosphoribosyltransferase (NAMPT), secreted form (Homo sapiens (Human), UniProt P43490 1-491).
T1 construct: also called PBEF; visfatin
As to the kind of experiment: SPR (format not described).

T1 sequence (P43490 whole entry): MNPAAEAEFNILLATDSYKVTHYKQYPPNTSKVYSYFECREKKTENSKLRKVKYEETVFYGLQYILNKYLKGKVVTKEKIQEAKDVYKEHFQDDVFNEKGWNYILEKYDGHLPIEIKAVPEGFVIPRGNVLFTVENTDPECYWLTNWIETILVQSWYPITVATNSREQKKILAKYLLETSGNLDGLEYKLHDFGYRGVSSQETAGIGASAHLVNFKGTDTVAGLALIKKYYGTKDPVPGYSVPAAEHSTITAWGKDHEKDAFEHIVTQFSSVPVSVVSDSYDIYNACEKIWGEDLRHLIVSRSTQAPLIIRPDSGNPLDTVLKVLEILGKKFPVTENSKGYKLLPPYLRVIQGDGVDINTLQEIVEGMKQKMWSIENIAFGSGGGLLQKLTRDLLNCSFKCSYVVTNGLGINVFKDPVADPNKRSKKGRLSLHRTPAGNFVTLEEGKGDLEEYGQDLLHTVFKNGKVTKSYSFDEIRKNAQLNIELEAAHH

B1: humanized anti-NAMPT monoclonal antibody ALT-100 (antibody, V domains shown)
VH: QVQLVQSGAEVTKPGASVKVSCKASGYTFTSYWMQWVRQAPGQGLEWVGEIEPSNSYTNYNQKFRGRVTLTRDTSTTTVYMELSSLRSEDTAVYYCARGGYWGQGTTVTVSS
VL: DIVMTQSPLSLPVTPGEPASISCRSSKSLLHSQGITYLYWYLQKPGQSPQLLIYQLSNRASGVPDRFSGSGSGTDFTLKISRVEAEDVGVYYCVQNLELPYTFGGGTKLEIK
notes: the in vivo control was an IgG1 antibody; also called ALT-100 mAb; Ab3
On to B1, for which binding was characterised by a dissociation constant (Kd) of 4.5 nM.
